The source of these data is doi:10.1101/340778 (bioRxiv, 2018).

This test has as its target J-base Binding Protein 1 (JBP1) (Leishmania tarentolae (assumed; species …, UniProt Q9U6M1). The test can be described thus: SPR.

Sequence of J-base Binding Protein 1 (JBP1) (Leishmania tarentolae (Q9U6M1 whole entry): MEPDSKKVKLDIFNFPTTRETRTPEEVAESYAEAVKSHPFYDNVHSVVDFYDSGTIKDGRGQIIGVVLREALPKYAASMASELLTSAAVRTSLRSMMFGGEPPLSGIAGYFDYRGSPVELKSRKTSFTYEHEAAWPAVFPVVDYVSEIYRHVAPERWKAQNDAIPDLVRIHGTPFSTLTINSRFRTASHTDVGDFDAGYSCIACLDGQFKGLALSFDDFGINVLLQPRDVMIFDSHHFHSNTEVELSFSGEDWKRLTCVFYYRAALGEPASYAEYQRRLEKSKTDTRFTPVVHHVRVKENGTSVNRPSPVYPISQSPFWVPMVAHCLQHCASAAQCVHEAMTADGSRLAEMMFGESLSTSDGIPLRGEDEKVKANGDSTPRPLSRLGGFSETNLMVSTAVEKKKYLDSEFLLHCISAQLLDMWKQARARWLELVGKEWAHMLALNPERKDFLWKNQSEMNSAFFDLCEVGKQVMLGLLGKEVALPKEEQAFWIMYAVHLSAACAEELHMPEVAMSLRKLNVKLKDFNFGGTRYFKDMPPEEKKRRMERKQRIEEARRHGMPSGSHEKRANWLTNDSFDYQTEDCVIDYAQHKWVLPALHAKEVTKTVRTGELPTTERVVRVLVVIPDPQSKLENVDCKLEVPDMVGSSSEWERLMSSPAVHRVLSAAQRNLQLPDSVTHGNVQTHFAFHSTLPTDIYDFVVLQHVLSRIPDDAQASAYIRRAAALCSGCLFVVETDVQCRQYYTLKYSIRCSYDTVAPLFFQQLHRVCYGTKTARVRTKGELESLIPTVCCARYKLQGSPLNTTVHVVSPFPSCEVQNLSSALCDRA

B1: nanobody-6 (Nb6) (VHH)
VHH: QVQLVESGGGLVQAGGSLRLSCAASGSFFSINDMGWYRQAPGKQRELVAVISSGGSTNYADSVEGRSTISSDNAKNTVYLQLSSLKPEDTAVYYCNANVRLREYRTTSYHYWGQGTQVTVSS
B1 came in with a Kd of 30 nM.
